Results reported in the supplement of paper PMC7125110.
± gives the standard error. This sample holds only a part of the variants without activity.

B1: glmS ribozyme (parent)
chain: AUAAAAGCGCCAGAACUACAGAAAUGUAGUUGACGAGGAGGAGGUUUAUCGAAUUUUCGGCGGAUGCCUCCAAA

Variants of: B1
Experiment: self-cleavage kobs at 640 uM GlcN6P; higher = faster cleavage; RNA array
Settings: with glucosamine-6-phosphate
Summary of the method: (§1)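 Barcoded ribozyme variants were transcribed in situ on sequenced MiSeq chips by E. coli RNA polymerase. At 37 °C, a hybridised Cy3 probe tracked them while glucosamine-6-phosphate (40 μM to 10 mM) in HEPES/KCl/Mg(OAc)2 buffer flowed in and tiles were imaged over ~14 h. Per-tile medians of signals normalised to baseline and to non-cleaving reference variants were fit to one- or two-exponential decays, giving kobs. kcat and KM came from weighted Michaelis–Menten fits across concentrations.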

Row | Variant | self-cleavage kobs at 640 uM GlcN6P [s⁻¹]
1 | C8U A15C A33U G37C C71G | 5.18e-05 ± 2.5e-05
2 | C8U A64G C67G | < 1e-05
3 | C8G A36G A39U G43U | < 1e-05
4 | G7A G37A G60U A64U | < 1e-05
5 | G9A A42C G44A | < 1e-05
6 | A6U G37A U55G C71G | < 1e-05
7 | G7A G40U C58U | < 1e-05
8 | C8G G13C G38U C50G | 4.5e-05 ± 2.2e-05
9 | C8U U31G C34U U47A | < 1e-05
10 | G7A U55C C58G | < 1e-05
11 | G7U A39C A42C | < 1e-05
12 | A6U G38U A39C U55A | < 1e-05
13 | A6U G37U A48C C67G | < 1e-05
14 | G9A G40C G44A G59U | < 1e-05
15 | C8A G13A C61U G62C C70A | < 1e-05
16 | C8G G32A U57G C67U | < 1e-05
17 | A6U G44U U49G | < 1e-05
18 | G7A C16U C71A | < 1e-05
19 | G7U U49G G51C A64C G66C | < 1e-05
20 | G7A G9U G13U A48C | < 1e-05
21 | C10A U54G U65C | < 1e-05
22 | G7U G9A G40C | < 1e-05
23 | C10A A12C G63C C71G | < 1e-05

Row | Variant | self-cleavage kobs at 640 uM GlcN6P [s⁻¹]
24 | C8A G9C G37C | < 1e-05
25 | C8A U31G C61A | < 1e-05
26 | G7A U31G G41U C68U | < 1e-05
27 | G9U G32C C34G C58U C68G | 0.000182 ± 7.9e-05
28 | G9U G35C A42U U45A C70A | < 1e-05
29 | C10U C58G C67A | 0.000107 ± 3.8e-05
30 | C8A U55G A64U | < 1e-05
31 | G9U C10U C11A | < 1e-05
32 | G7A A12G U31A C68G | 0.000116 ± 3.5e-05
33 | G7U G41C C58A | < 1e-05
34 | A6U G37A U54A | < 1e-05
35 | G7U C8A U30G G44C | < 1e-05
36 | C8U A15C G35C C68U | < 1e-05
37 | C10A C11G G35C G44C | < 1e-05
38 | C8A G13U C16A A33U U65G C71A | < 1e-05
39 | C8A U55G G63U | < 1e-05
40 | C8G U31G C50G | 7.77e-05 ± 3.6e-05
41 | C10U G32C G35A | < 1e-05
42 | C8A C16A G63U A64G U65C C71G | < 1e-05
43 | G9U G62C C67U | < 1e-05
44 | C8U U30A U31C A48U C68U | < 1e-05
45 | C10U A39U G41U | < 1e-05
46 | G9A A12U U49A | < 1e-05

Row | Variant | self-cleavage kobs at 640 uM GlcN6P [s⁻¹]
47 | C8A G35U C70G | 0.000526 ± 0.0002
48 | C10A G43C A53U | < 1e-05
49 | C8G G32U G40A G44C C58U | < 1e-05
50 | C8G A14C G29C C34A C67U | < 1e-05
51 | G7C G9C A36G G51C | < 1e-05
52 | C10U G38U U57G C61G G66U | 0.000307 ± 9.3e-05
53 | G9A G35A C58U C71U | < 1e-05
54 | C10A C16A C68A | 0.000126 ± 4.7e-05
55 | C8G C58A U65G C71A | < 1e-05
56 | G9C A12C | < 1e-05
57 | G7U C61G C67A | 0.000105 ± 4.6e-05
58 | G9C A15U G26U G63C | < 1e-05
59 | C8G C16G G38A | < 1e-05
60 | C8A A15U A48C | < 1e-05
61 | C10G G13A G43A C50U | < 1e-05
62 | C10U G38U U69A | 8.22e-05 ± 2.4e-05
63 | G9A C10A G13C G29C | < 1e-05
64 | G7A C8A U65C | < 1e-05
65 | C8U U30A A39U | < 1e-05
66 | G9U C16G G29U G40U G41A G66U | < 1e-05
67 | G9U A12G C61A | 3.47e-05 ± 1.5e-05
68 | G9A C11A A14G C34G G35U A36U A48U U55C C67G U69C | < 1e-05
69 | G7U A12U G40U U55C C71A | < 1e-05

Variants of: B1
Experiment: self-cleavage kobs at 2500 uM GlcN6P; higher = faster cleavage; RNA array
Settings: with glucosamine-6-phosphate
Summary of the method: as §1

Row | Variant | self-cleavage kobs at 2500 uM GlcN6P [s⁻¹]
70 | C8G A36G A39U G43U | < 1e-05
71 | G9A A42C G44A | < 1e-05
72 | G7A G40U C58U | < 1e-05
73 | G7U A39C A42C | < 1e-05
74 | A6U G38U A39C U55A | < 1e-05
75 | A6U G37U A48C C67G | < 1e-05
76 | C8A G13A C61U G62C C70A | < 1e-05
77 | G7U U49G G51C A64C G66C | < 1e-05
78 | G7U G9A G40C | < 1e-05
79 | C8A U55G A64U | < 1e-05
80 | G7U G41C C58A | < 1e-05
81 | C10A C11G G35C G44C | < 1e-05
82 | C8A G13U C16A A33U U65G C71A | < 1e-05
83 | C10U G32C G35A | < 1e-05
84 | G9U G62C C67U | < 1e-05
85 | C8U U30A U31C A48U C68U | < 1e-05
86 | G9A A12U U49A | < 1e-05
87 | C10A G43C A53U | < 1e-05
88 | C8G G32U G40A G44C C58U | < 1e-05
89 | G9C A12C | < 1e-05
90 | G7U C61G C67A | 0.00214 ± 0.00087
91 | C10G G13A G43A C50U | < 1e-05
92 | G9A C10A G13C G29C | < 1e-05
93 | G7A C8A U65C | < 1e-05
94 | C8U U30A A39U | < 1e-05
95 | G9U C16G G29U G40U G41A G66U | < 1e-05
96 | G9U A12G C61A | 8.52e-05 ± 1.9e-05
97 | G7U A12U G40U U55C C71A | < 1e-05

Variants of: B1
Experiment: self-cleavage kobs at 10000 uM GlcN6P; higher = faster cleavage; RNA array
Settings: with glucosamine-6-phosphate
Summary of the method: as §1

Row | Variant | self-cleavage kobs at 10000 uM GlcN6P [s⁻¹]
98 | A6U G37A U55G C71G | < 1e-05
99 | C8A U31G C61A | < 1e-05
100 | C8A G35U C70G | 7.27e-05 ± 2.4e-05
101 | G9C A12C | < 1e-05
102 | C10G G13A G43A C50U | < 1e-05
